Test [1] deals with T1, human GIP receptor (human, UniProt P48546 22-466).
T1 sequence (looked up): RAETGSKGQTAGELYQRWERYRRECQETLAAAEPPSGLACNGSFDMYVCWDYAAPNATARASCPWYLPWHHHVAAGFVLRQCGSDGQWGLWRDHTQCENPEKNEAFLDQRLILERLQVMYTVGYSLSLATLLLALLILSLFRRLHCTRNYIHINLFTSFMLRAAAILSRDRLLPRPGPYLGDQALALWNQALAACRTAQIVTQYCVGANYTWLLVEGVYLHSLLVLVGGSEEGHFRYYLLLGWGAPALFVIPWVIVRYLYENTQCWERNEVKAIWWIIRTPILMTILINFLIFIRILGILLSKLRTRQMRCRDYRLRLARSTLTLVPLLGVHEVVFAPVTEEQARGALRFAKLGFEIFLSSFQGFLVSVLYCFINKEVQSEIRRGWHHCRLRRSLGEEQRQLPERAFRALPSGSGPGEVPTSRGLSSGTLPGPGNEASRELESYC
Nature of the test: cell-based or functional assay.

Test [2] has as its target human GLP-1 receptor (human, UniProt P43220 24-463). Put plainly: cell-based or functional assay.

Starred links: 1 amine or outer side, 2 acyl side, 3 side chain; linkers in the order of their positions; H or OH if unused. Non-standard residues stand in square brackets, D forms with d. Groups on a side chain read outwards from the residue. No end group written: not given here. *: point of attachment. C18 diacid = O=C(O)CCCCCCCCCCCCCCCCC(=O)*; γGlu = O=C(O)[C@H](CCC(=O)[*:2])N[*:1]; εLys = N[C@@H](CCCCN[*:1])C(=O)[*:2]; AEEA = NCCOCCOCC(=O)O; Aib = CC(C)(N)C(=O)O

Sequence of human GLP-1 receptor (P43220 24-463): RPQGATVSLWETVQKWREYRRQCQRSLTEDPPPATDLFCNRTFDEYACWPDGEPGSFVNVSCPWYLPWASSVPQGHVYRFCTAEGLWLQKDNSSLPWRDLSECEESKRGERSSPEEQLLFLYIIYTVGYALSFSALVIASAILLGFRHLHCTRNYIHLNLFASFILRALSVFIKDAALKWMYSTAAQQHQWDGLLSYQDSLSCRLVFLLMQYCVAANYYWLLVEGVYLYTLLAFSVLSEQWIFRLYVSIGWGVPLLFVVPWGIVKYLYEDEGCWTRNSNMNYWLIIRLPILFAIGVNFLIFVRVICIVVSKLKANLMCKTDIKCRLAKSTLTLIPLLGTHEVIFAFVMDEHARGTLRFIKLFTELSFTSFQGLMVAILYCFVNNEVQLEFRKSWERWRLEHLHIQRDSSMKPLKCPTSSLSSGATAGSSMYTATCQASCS

As for “human GIP (from UniProt P09681 52-93) (ligand)”, in test [1], the hGIPR, CRE Luc 0% HSA EC50 (pM) came to 11.3 pM and the hGIPR, CRE Luc 1% HSA EC50 (pM) is 6.4 pM.

B1: Compound No. 20 (peptide)
peptide: Y[Aib]EGTFTSDYSILLEK([εLys-εLys-γGlu-C18 diacid])QAAREFINWLLAGGPSS-OH
modifications: N-terminus assumed
SMILES: CC[C@H](C)[C@H](NC(=O)[C@H](Cc1ccccc1)NC(=O)[C@H](CCC(=O)O)NC(=O)[C@H](CCCNC(=N)N)NC(=O)[C@H](C)NC(=O)[C@H](C)NC(=O)[C@H](CCC(N)=O)NC(=O)[C@H](CCCCNC(=O)[C@@H](N)CCCCNC(=O)[C@@H](N)CCCCNC(=O)CC[C@H](NC(=O)CCCCCCCCCCCCCCCCC(=O)O)C(=O)O)NC(=O)[C@H](CCC(=O)O)NC(=O)[C@H](CC(C)C)NC(=O)[C@H](CC(C)C)NC(=O)[C@@H](NC(=O)[C@H](CO)NC(=O)[C@H](Cc1ccc(O)cc1)NC(=O)[C@H](CC(=O)O)NC(=O)[C@H](CO)NC(=O)[C@@H](NC(=O)[C@H](Cc1ccccc1)NC(=O)[C@@H](NC(=O)CNC(=O)[C@H](CCC(=O)O)NC(=O)C(C)(C)NC(=O)[C@@H](N)Cc1ccc(O)cc1)[C@@H](C)O)[C@@H](C)O)[C@@H](C)CC)C(=O)N[C@@H](CC(N)=O)C(=O)N[C@@H](Cc1c[nH]c2ccccc12)C(=O)N[C@@H](CC(C)C)C(=O)N[C@@H](CC(C)C)C(=O)N[C@@H](C)C(=O)NCC(=O)NCC(=O)N1CCC[C@H]1C(=O)N[C@@H](CO)C(=O)N[C@@H](CO)C(=O)O
For the molecule B1, in test [1], the “hGIPR, CRE Luc 0% HSA EC50 (pM)” value was 7.1 pM and the “hGIPR, CRE Luc 1% HSA EC50 (pM)” value stood at 247 pM. Also, in test [2], the “hGLP-1R, CRE Luc 0% HSA EC50 (pM)” value amounted to 4.2 pM and the “hGLP-1R, CRE Luc 1% HSA EC50 (pM)” value was 256 pM.

B2: Compound No. 19 (peptide)
peptide: Y[Aib]EGTFTSDYSILLEK([εLys-εLys-γGlu-C18 diacid])QAAREFINWLLAGGP-OH
modifications: N-terminus assumed
SMILES: CC[C@H](C)[C@H](NC(=O)[C@H](Cc1ccccc1)NC(=O)[C@H](CCC(=O)O)NC(=O)[C@H](CCCNC(=N)N)NC(=O)[C@H](C)NC(=O)[C@H](C)NC(=O)[C@H](CCC(N)=O)NC(=O)[C@H](CCCCNC(=O)[C@@H](N)CCCCNC(=O)[C@@H](N)CCCCNC(=O)CC[C@H](NC(=O)CCCCCCCCCCCCCCCCC(=O)O)C(=O)O)NC(=O)[C@H](CCC(=O)O)NC(=O)[C@H](CC(C)C)NC(=O)[C@H](CC(C)C)NC(=O)[C@@H](NC(=O)[C@H](CO)NC(=O)[C@H](Cc1ccc(O)cc1)NC(=O)[C@H](CC(=O)O)NC(=O)[C@H](CO)NC(=O)[C@@H](NC(=O)[C@H](Cc1ccccc1)NC(=O)[C@@H](NC(=O)CNC(=O)[C@H](CCC(=O)O)NC(=O)C(C)(C)NC(=O)[C@@H](N)Cc1ccc(O)cc1)[C@@H](C)O)[C@@H](C)O)[C@@H](C)CC)C(=O)N[C@@H](CC(N)=O)C(=O)N[C@@H](Cc1c[nH]c2ccccc12)C(=O)N[C@@H](CC(C)C)C(=O)N[C@@H](CC(C)C)C(=O)N[C@@H](C)C(=O)NCC(=O)NCC(=O)N1CCC[C@H]1C(=O)O
Turning to B2, in test [1], the “hGIPR, CRE Luc 0% HSA EC50 (pM)” value stood at 6.5 pM and the “hGIPR, CRE Luc 1% HSA EC50 (pM)” value stood at 275 pM. Further, in test [2], the “hGLP-1R, CRE Luc 0% HSA EC50 (pM)” value was 8.6 pM and the “hGLP-1R, CRE Luc 1% HSA EC50 (pM)” value stood at 365 pM.

B3: Compound No. 21 (peptide)
peptide: Y[Aib]EGTFTSDYSILLEK([εLys-εLys-γGlu-C18 diacid])QAAREFINWLLAGGPSSGA-OH
modifications: N-terminus assumed
SMILES: CC[C@H](C)[C@H](NC(=O)[C@H](Cc1ccccc1)NC(=O)[C@H](CCC(=O)O)NC(=O)[C@H](CCCNC(=N)N)NC(=O)[C@H](C)NC(=O)[C@H](C)NC(=O)[C@H](CCC(N)=O)NC(=O)[C@H](CCCCNC(=O)[C@@H](N)CCCCNC(=O)[C@@H](N)CCCCNC(=O)CC[C@H](NC(=O)CCCCCCCCCCCCCCCCC(=O)O)C(=O)O)NC(=O)[C@H](CCC(=O)O)NC(=O)[C@H](CC(C)C)NC(=O)[C@H](CC(C)C)NC(=O)[C@@H](NC(=O)[C@H](CO)NC(=O)[C@H](Cc1ccc(O)cc1)NC(=O)[C@H](CC(=O)O)NC(=O)[C@H](CO)NC(=O)[C@@H](NC(=O)[C@H](Cc1ccccc1)NC(=O)[C@@H](NC(=O)CNC(=O)[C@H](CCC(=O)O)NC(=O)C(C)(C)NC(=O)[C@@H](N)Cc1ccc(O)cc1)[C@@H](C)O)[C@@H](C)O)[C@@H](C)CC)C(=O)N[C@@H](CC(N)=O)C(=O)N[C@@H](Cc1c[nH]c2ccccc12)C(=O)N[C@@H](CC(C)C)C(=O)N[C@@H](CC(C)C)C(=O)N[C@@H](C)C(=O)NCC(=O)NCC(=O)N1CCC[C@H]1C(=O)N[C@@H](CO)C(=O)N[C@@H](CO)C(=O)NCC(=O)N[C@@H](C)C(=O)O
Regarding B3, in test [1], the “hGIPR, CRE Luc 0% HSA EC50 (pM)” value was found to be 5.4 pM and the “hGIPR, CRE Luc 1% HSA EC50 (pM)” value is 131 pM. In test [2], the “hGLP-1R, CRE Luc 0% HSA EC50 (pM)” value was 5.7 pM and the “hGLP-1R, CRE Luc 1% HSA EC50 (pM)” value was 118 pM.

B4: Compound No. 10 (peptide)
peptide: Y[Aib]EGTFTSDYSIYLEK([AEEA-AEEA-γGlu-C18 diacid])QAAREFIEWLLAGGPSSGAPPPS-OH
modifications: N-terminus assumed
SMILES: CC[C@H](C)[C@H](NC(=O)[C@H](Cc1ccccc1)NC(=O)[C@H](CCC(=O)O)NC(=O)[C@H](CCCNC(=N)N)NC(=O)[C@H](C)NC(=O)[C@H](C)NC(=O)[C@H](CCC(N)=O)NC(=O)[C@H](CCCCNC(=O)COCCOCCNC(=O)COCCOCCNC(=O)CC[C@H](NC(=O)CCCCCCCCCCCCCCCCC(=O)O)C(=O)O)NC(=O)[C@H](CCC(=O)O)NC(=O)[C@H](CC(C)C)NC(=O)[C@H](Cc1ccc(O)cc1)NC(=O)[C@@H](NC(=O)[C@H](CO)NC(=O)[C@H](Cc1ccc(O)cc1)NC(=O)[C@H](CC(=O)O)NC(=O)[C@H](CO)NC(=O)[C@@H](NC(=O)[C@H](Cc1ccccc1)NC(=O)[C@@H](NC(=O)CNC(=O)[C@H](CCC(=O)O)NC(=O)C(C)(C)NC(=O)[C@@H](N)Cc1ccc(O)cc1)[C@@H](C)O)[C@@H](C)O)[C@@H](C)CC)C(=O)N[C@@H](CCC(=O)O)C(=O)N[C@@H](Cc1c[nH]c2ccccc12)C(=O)N[C@@H](CC(C)C)C(=O)N[C@@H](CC(C)C)C(=O)N[C@@H](C)C(=O)NCC(=O)NCC(=O)N1CCC[C@H]1C(=O)N[C@@H](CO)C(=O)N[C@@H](CO)C(=O)NCC(=O)N[C@@H](C)C(=O)N1CCC[C@H]1C(=O)N1CCC[C@H]1C(=O)N1CCC[C@H]1C(=O)N[C@@H](CO)C(=O)O
Regarding B4, the “hGIPR, CRE Luc 0% HSA EC50 (pM)” value in test [1] turned out to be 11.3 pM.

B5: Compound No. 18 (peptide)
peptide: Y[Aib]EGTFTSDYSILLEK([εLys-εLys-γGlu-C18 diacid])QAAREFINWLLAG-OH
modifications: N-terminus assumed
SMILES: CC[C@H](C)[C@H](NC(=O)[C@H](Cc1ccccc1)NC(=O)[C@H](CCC(=O)O)NC(=O)[C@H](CCCNC(=N)N)NC(=O)[C@H](C)NC(=O)[C@H](C)NC(=O)[C@H](CCC(N)=O)NC(=O)[C@H](CCCCNC(=O)[C@@H](N)CCCCNC(=O)[C@@H](N)CCCCNC(=O)CC[C@H](NC(=O)CCCCCCCCCCCCCCCCC(=O)O)C(=O)O)NC(=O)[C@H](CCC(=O)O)NC(=O)[C@H](CC(C)C)NC(=O)[C@H](CC(C)C)NC(=O)[C@@H](NC(=O)[C@H](CO)NC(=O)[C@H](Cc1ccc(O)cc1)NC(=O)[C@H](CC(=O)O)NC(=O)[C@H](CO)NC(=O)[C@@H](NC(=O)[C@H](Cc1ccccc1)NC(=O)[C@@H](NC(=O)CNC(=O)[C@H](CCC(=O)O)NC(=O)C(C)(C)NC(=O)[C@@H](N)Cc1ccc(O)cc1)[C@@H](C)O)[C@@H](C)O)[C@@H](C)CC)C(=O)N[C@@H](CC(N)=O)C(=O)N[C@@H](Cc1c[nH]c2ccccc12)C(=O)N[C@@H](CC(C)C)C(=O)N[C@@H](CC(C)C)C(=O)N[C@@H](C)C(=O)NCC(=O)O
Turning to B5, in test [1], the “hGIPR, CRE Luc 0% HSA EC50 (pM)” value was determined as 20.9 pM and the “hGIPR, CRE Luc 1% HSA EC50 (pM)” value was 285 pM. In test [2], the “hGLP-1R, CRE Luc 0% HSA EC50 (pM)” value is 19.7 pM and the “hGLP-1R, CRE Luc 1% HSA EC50 (pM)” value is 226 pM.

(Values after patent US20220125940A1 (Novo Nordisk, published 2022).)
